# Source: PMC6831621, “Structural Insight Into Chitin Degradation and Thermostability of a Novel Endochitinase From the Glycoside Hydrolase Family 18” (Frontiers in Microbiology, 2019)
# Substitutions are numbered along the chain they refer to. In names and notes the source's numbering stands.
# B1: Chi23 (Pseudoalteromonas aurantia; G79A) (protein)
# chain: MSKTITYYNSGAVPLINASELPYDVVNLAFLSSSSNNPFNLVLSGAIAATESSFTTNTIEAIKVMQHKGQKVLISFGGATMGSNAYRSLSEDTAKLADSLASFVKNNQLDGVDIDYEDTAAFTGQAGYDGAQFLISLTQELRKRLPSPDYIISHAPQPPYLEQGGYMAGYVEVVELVGQEIDWLNVQFYNNPPWSANPDQIVSSYLNYTKLPNMSPEKVIAGFPVTQNDAGSGYMPVQTIINEVIKPIQQQSSLGGIMNWQFSSDHNGDWIKAIAQSLNS
# notes: pET22b NdeI/XhoI, His-tagged (C-terminal by primer design), E. coli BL21(DE3); monomer; forward primer encodes MSKTITYYNS, reverse primer encodes AQSLNS at the C-terminus
# B2: Chi23 (Pseudoalteromonas aurantia; Q261A) (protein)
# chain: B1 chain with A79G, Q261A
# notes: as for B1
# B3: Chi23 (Pseudoalteromonas aurantia; N190A) (protein)
# chain: B1 chain with A79G, N190A
# notes: as for B1
# B4: Chi23 (Pseudoalteromonas aurantia) (protein)
# chain: B1 chain with A79G
# notes: as for B1
# B5: Chi23 (Pseudoalteromonas aurantia; Q157A) (protein)
# chain: B1 chain with A79G, Q157A
# notes: as for B1
# B6: Chi23 (Pseudoalteromonas aurantia; T80A) (protein)
# chain: B1 chain with A79G, T80A
# notes: as for B1
# B7: Chi23 (Pseudoalteromonas aurantia; D229A) (protein)
# chain: B1 chain with A79G, D229A
# notes: as for B1
# B8: Chi23 (Pseudoalteromonas aurantia; N9A) (protein)
# chain: B1 chain with N9A, A79G
# notes: pET22b NdeI/XhoI, His-tagged (C-terminal by primer design), E. coli BL21(DE3); monomer; forward primer encodes …, reverse primer encodes AQSLNS at the C-terminus
# Substrate: CC(=O)N[C@H]1[C@H](Oc2ccc3c(C)cc(=O)oc3c2)O[C@H](CO)[C@@H](O[C@@H]2O[C@H](CO)[C@@H](O)[C@H](O)[C@H]2NC(C)=O)[C@@H]1O
# Experiment: fluorogenic substrate hydrolysis, Michaelis-Menten non-linear fit
# Type: biochemical, Pseudoalteromonas aurantia
# Conditions: McIlvaine's buffer pH 5.0, substrate 0.01-0.6 mM, temperature not given for kinetics
# Text: fluorogenic substrate hydrolysis, Michaelis-Menten non-linear fit on Chi23
protein,measurement,value
B1,Km,72.6 ± 6.9 µM
same,Vmax,0.0576 µmol/min/mg
same,kcat,0.0295 ± 0.0013 s⁻¹
B2,Km,86.3 ± 6.6 µM
same,Vmax,0.0009 µmol/min/mg
same,kcat,0.0005 ± 2e-05 s⁻¹
B3,Km,77.4 ± 16.2 µM
same,Vmax,4e-05 µmol/min/mg
same,kcat,2e-05 ± 2e-06 s⁻¹
B4,Km,64.6 ± 11.7 µM
same,Vmax,0.0107 µmol/min/mg
same,kcat,0.0054 ± 0.0005 s⁻¹
B5,Km,104.1 ± 17.5 µM
same,Vmax,0.0044 µmol/min/mg
same,kcat,0.0022 ± 0.0002 s⁻¹
B6,Km,85.6 ± 7.2 µM
same,Vmax,0.0144 µmol/min/mg
same,kcat,0.0073 ± 0.0003 s⁻¹
B7,Km,80.1 ± 6.3 µM
same,Vmax,0.0027 µmol/min/mg
same,kcat,0.0014 ± 5e-05 s⁻¹
B8,Km,90.1 ± 13.4 µM
same,Vmax,0.0042 µmol/min/mg
same,kcat,0.0021 ± 0.0002 s⁻¹
